The values below come from US20200369766A1 (LEIDOS, published 2020).

Where “and” joins values, the source holds several entries; their conditions need not be identical. Equal values may be shown once.

The target in experiment [1] is T1, human LAG3 expressed on Jurkat T cell line (human, UniProt P18627 23-525).
T1 sequence (looked up): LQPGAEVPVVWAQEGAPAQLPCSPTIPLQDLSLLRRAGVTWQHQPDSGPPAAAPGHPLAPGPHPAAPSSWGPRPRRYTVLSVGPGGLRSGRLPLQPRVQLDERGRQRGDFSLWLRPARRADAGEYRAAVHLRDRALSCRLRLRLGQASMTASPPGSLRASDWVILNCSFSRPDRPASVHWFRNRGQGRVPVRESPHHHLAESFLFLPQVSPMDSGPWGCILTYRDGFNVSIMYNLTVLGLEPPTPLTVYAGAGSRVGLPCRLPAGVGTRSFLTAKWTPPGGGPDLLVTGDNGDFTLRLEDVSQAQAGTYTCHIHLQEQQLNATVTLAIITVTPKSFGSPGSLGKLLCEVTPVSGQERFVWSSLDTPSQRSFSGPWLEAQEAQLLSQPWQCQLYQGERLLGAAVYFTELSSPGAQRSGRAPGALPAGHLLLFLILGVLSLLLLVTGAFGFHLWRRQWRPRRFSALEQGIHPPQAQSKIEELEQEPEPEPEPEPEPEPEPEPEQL
As to the kind of experiment: cell-based or functional assay.

The target of experiment [2] is Tag1-LAG3. As to the kind of experiment: HTRF LAG3/MHC-II; peptide log M -4. Background: Time-resolved FRET reads energy transfer from a long-lived donor to a nearby acceptor.
The target of experiment [3] is Tag1-LAG3. As to the kind of experiment: HTRF LAG3/MHC-II; peptide log M -7.0103.
The target in experiment [4] is Tag1-LAG3. In words: HTRF LAG3/MHC-II; peptide log M -10.0206.
Experiment [5] deals with Tag1-LAG3. In words: HTRF LAG3/MHC-II; peptide log M -10.6227.
For experiment [6], the target named is Tag1-LAG3. As to the kind of experiment: HTRF LAG3/MHC-II; peptide log M -4.60206.
For experiment [7], the target named is Tag1-LAG3. As to the kind of experiment: HTRF LAG3/MHC-II; peptide log M -5.20412.
Experiment [8] deals with Tag1-LAG3. In words: HTRF LAG3/MHC-II; peptide log M -5.80618.
For experiment [9], the target named is Tag1-LAG3. As to the kind of experiment: HTRF LAG3/MHC-II; peptide log M -6.40824.
The target in experiment [10] is Tag1-LAG3. As to the kind of experiment: HTRF LAG3/MHC-II; peptide log M -7.61236.
For experiment [11], the target named is Tag1-LAG3. In words: HTRF LAG3/MHC-II; peptide log M -8.21442.
In experiment [12] the target is Tag1-LAG3. In words: HTRF LAG3/MHC-II; peptide log M -8.81648.
Experiment [13] addresses Tag1-LAG3. In words: HTRF LAG3/MHC-II; peptide log M -9.41854.

Turning to HIQNWSYWLNQDMMNQQVWKS [LAG3-56], in experiment [1], the “fold inhibition (fold increase in luciferase activity, RLUs at 100 µM against 0.64 µM)” value was ~2.2 fold.
Regarding ISQAVHAAHAEINEAGR [ovalbumin (OVA) peptide], the HTRF ratio with Tag1-LAG3 [2] was 8490 and 8910 and 7150; in the experiment with Tag1-LAG3 [3] it was 8970 and 8380 and 8650; in the experiment with Tag1-LAG3 [4], 8990 and 8460 and 8360; in the experiment with Tag1-LAG3 [5], 9090 and 8890 and 8630; in the experiment with Tag1-LAG3 [6] it was 8470 and 8680 and 8450; with Tag1-LAG3 [7], 8620 and 8580 and 9020. Also, the HTRF ratio with Tag1-LAG3 [8] was 8830 and 9370 and 9180; with Tag1-LAG3 [9], 8630 and 9280 and 9190; in the experiment with Tag1-LAG3 [10] it was 8780 and 8570 and 9020; in the experiment with Tag1-LAG3 [11], 8620 and 8990 and 9220; in the experiment with Tag1-LAG3 [12] it was 8720 and 8640 and 8680; with Tag1-LAG3 [13], 8400 and 8790 and 8620.
In the case of SAPWEPLHWPEDWWQGTGEW [LAG3-11], the “fold inhibition (fold increase in luciferase activity, RLUs at 100 µM against 0.64 µM)” value in experiment [1] is ~2.8 fold.
